Results on four substances are retold here after paper PMC7830388.

Data set [1] deals with CopR (PF0739), copper-sensing transcriptional regulator of Pyrococcus furiosus (Pyrococcus furiosus). In words: SEC; Superdex 200 10/300 GL in low salt buffer (40 mM HEPES pH 7.5, 80 mM ammonium sulfate, 1 mM EDTA, 10% glycerol); elution compared to standard calibration proteins.
The target in data set [2] is CopRΔTRASH (PF0739 variant lacking the metal-sensing TRASH domain) (Pyrococcus furiosus). The data set is described as follows: negative-stain transmission electron microscopy with 2D class averaging; 220 ng/μl protein, 2% uranyl acetate with 0.005% DDM; more than 50,000 particles classified in RELION 3.0; in the absence and presence of a DNA template.
Data set [3] addresses T1, CopRΔTRASH internal_change (Pyrococcus furiosus) (UniProt Q8U2U0).
T1 sequence: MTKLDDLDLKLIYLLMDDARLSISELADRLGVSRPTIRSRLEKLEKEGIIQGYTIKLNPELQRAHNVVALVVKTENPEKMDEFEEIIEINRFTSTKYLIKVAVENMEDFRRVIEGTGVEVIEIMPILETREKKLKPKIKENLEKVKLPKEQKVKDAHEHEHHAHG
The data set is described as follows: EMSA. The settings on record: EMSA: 20 nM DNA, 40 mM HEPES pH 7.4, 80 mM (NH4)2SO4, 670 uM DTT, 20 ug/ml BSA, 6.7% glycerol, 50 ng HindIII-digested lambda DNA, 5 min 70 C; DNase I: 4.4 nM ….

Data set [4] has as its target T2, CopRΔHIS (Pyrococcus furiosus) (UniProt Q8U2U0).
T2 sequence: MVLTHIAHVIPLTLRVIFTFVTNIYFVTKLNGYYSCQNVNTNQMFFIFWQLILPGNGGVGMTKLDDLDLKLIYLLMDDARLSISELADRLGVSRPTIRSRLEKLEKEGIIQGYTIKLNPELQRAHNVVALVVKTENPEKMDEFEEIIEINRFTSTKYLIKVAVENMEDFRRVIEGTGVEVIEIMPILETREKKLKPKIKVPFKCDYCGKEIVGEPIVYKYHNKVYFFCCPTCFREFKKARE
In words: EMSA. Particulars: EMSA: 20 nM DNA, 40 mM HEPES pH 7.4, 80 mM (NH4)2SO4, 670 uM DTT, 20 ug/ml BSA, 6.7% glycerol, 50 ng HindIII-digested lambda DNA, 5 min 70 C; DNase I: 4.4 nM ….

For data set [5], the target named is T3, CopR (Pyrococcus furiosus) (UniProt Q8U2U0).
T3 sequence: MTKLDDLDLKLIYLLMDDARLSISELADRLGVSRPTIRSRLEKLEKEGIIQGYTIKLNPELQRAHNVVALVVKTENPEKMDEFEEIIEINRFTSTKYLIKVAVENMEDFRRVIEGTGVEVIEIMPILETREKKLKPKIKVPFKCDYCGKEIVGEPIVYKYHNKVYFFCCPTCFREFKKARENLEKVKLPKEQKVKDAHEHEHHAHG
The data set is described as follows: EMSA. Particulars: EMSA: 20 nM DNA, 40 mM HEPES pH 7.4, 80 mM (NH4)2SO4, 670 uM DTT, 20 ug/ml BSA, 6.7% glycerol, 50 ng HindIII-digested lambda DNA, 5 min 70 C; DNase I: 4.4 nM ….

In data set [6] the target is T4, CopRΔHISΔTRASH (Pyrococcus furiosus) (UniProt Q8U2U0).
T4 sequence: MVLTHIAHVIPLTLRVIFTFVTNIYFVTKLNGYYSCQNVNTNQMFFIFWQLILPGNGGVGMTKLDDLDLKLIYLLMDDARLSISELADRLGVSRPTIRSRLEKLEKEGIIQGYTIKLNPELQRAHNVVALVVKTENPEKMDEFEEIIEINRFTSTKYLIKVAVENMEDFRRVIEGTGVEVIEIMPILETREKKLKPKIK
The data set is described as follows: EMSA. Particulars: EMSA: 20 nM DNA, 40 mM HEPES pH 7.4, 80 mM (NH4)2SO4, 670 uM DTT, 20 ug/ml BSA, 6.7% glycerol, 50 ng HindIII-digested lambda DNA, 5 min 70 C; DNase I: 4.4 nM ….

For data set [7], the target named is T3, CopR (Pyrococcus furiosus). The data set is described as follows: DNase I footprinting. Particulars: EMSA: 20 nM DNA, 40 mM HEPES pH 7.4, 80 mM (NH4)2SO4, 670 uM DTT, 20 ug/ml BSA, 6.7% glycerol, 50 ng HindIII-digested lambda DNA, 5 min 70 C; DNase I: 4.4 nM ….
Data set [8] has as its target T5, TBP;TFB (Pyrococcus furiosus?;Pyrococcus furiosus?) (UniProt P62000+P61998).
T5 sequence 1: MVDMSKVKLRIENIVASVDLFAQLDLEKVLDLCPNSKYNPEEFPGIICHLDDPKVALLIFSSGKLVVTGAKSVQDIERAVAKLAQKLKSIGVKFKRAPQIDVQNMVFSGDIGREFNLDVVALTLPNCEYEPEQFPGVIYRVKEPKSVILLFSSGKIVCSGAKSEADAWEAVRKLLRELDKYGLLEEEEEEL
T5 sequence 2: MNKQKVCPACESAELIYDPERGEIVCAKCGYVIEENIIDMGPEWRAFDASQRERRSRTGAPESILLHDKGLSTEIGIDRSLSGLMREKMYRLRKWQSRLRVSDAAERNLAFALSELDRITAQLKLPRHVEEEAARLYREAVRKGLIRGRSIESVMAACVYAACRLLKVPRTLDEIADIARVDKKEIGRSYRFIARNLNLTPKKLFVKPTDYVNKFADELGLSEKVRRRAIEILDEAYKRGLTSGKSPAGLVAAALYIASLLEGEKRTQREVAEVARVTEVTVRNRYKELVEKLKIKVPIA
The data set is described as follows: DNase I footprinting. Particulars: EMSA: 20 nM DNA, 40 mM HEPES pH 7.4, 80 mM (NH4)2SO4, 670 uM DTT, 20 ug/ml BSA, 6.7% glycerol, 50 ng HindIII-digested lambda DNA, 5 min 70 C; DNase I: 4.4 nM ….

For the substance “CopR (PF0739), copper-sensing transcriptional regulator of Pyrococcus furiosus (natural protein)”, the stoichiometry N in data set [1] was found to be 8.

Turning to “CopRΔTRASH (PF0739 variant lacking the metal-sensing TRASH domain) (natural protein)”, the stoichiometry N in data set [2] is 8.

Consider “GAGTGATCTTCACTTTCGTCACCAATATTTACTTTGTGACGAAACTTAATGGGTATTATTCATGCCAAAATGTAAACACTAACCAAATGTTTTTTATATTTTGGCAACTAATACTCCCAGGGAATGGGGGTGTTGGAATGACCAAGTTAGATG (double strand) [copR/copA intergenic promoter region (EMSA)]”, for which the binding result in data set [3], in data set [4], in data set [5] and in data set [6] was “binds” in each case.

With “GAGTGATCTTCACTTTCGTCACCAATATTTACTTTGTGACGAAACTTAATGGGTATTATTCATGCCAAAATGTAAACACTAACCAAATGTTTTTTATATTTTGGCAACTAATACTCCCAGGGAATGGGGGTGTTGGAATGACCAAGTTAGATG (double strand) [copR/copA promoter region (DNase I footprint)]”, the binding result in data set [7] and in data set [8] was “binds” each time.
